Here are results for two molecules from patent EP4778939A1 (Jiangsu Hengrui Pharmaceuticals Co., Ltd., dated 2026).

For the assay, the target named is human GPRC5D (human, UniProt Q9NZD1 1-345). Nature of the assay: cell-based or functional assay.
human GPRC5D, sequence (Q9NZD1 whole entry): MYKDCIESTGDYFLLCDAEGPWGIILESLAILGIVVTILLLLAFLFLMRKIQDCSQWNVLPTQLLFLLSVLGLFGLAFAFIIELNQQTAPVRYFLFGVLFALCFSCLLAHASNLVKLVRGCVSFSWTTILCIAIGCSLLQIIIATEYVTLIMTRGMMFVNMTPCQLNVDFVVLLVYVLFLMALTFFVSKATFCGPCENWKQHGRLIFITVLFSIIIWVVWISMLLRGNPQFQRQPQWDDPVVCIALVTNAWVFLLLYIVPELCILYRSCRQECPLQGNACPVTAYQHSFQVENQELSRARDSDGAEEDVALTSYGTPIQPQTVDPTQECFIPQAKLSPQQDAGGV

B1: F2-0G4S-1 (bispecific antibody)
heavy 1: not shown
light 1: DVVMTQTPLSLSVTPGQPASISCRSSQSLVHSQGNTYLYWYLQKPGQSPKLLIYKVSNRFSGVPDRFSGSGSGTDFTLKISRVEAEDVGVYYCSQSTHVPPLTFGQGTKLEIKRTVAAPSVFIFPPSDEQLKSGTASVVCLLNNFYPREAKVQWKVDNALQSGNSQESVTEQDSKDSTYSLSSTLTLSKADYEKHKVYACEVTHQGLSSPVTKSFNRGEC
heavy 2: not shown
light 2: not shown
With B1, the “EC50 ratio (relative to JNJ-64407564), cytotoxic activity against NCI-H929” value worked out at 0.57 ratio.

B2: F4-0G4S-1 (bispecific antibody)
heavy 1: not shown
light 1: not shown
heavy 2: EVQLVQSGAEVKKPGASVKVSCKVSGYTFTDYPIHWMRQAPGQGLEWMGYVFPRDGSTKYNEKFRVRVTWTADKSTSTVYMELSSLRSEDTAVYYCSRELTAYWGQGTTVTVSSASTKGPSVFPLAPSSKSTSGGTAALGCLVKDYFPEPVTVSWNSGALTSGVHTFPAVLQSSGLYSLSSVVTVPSSSLGTQTYICNVNHKPSNTKVDKKVEPKSCDKTHTCPPCPAPEAAGGPSVFLFPPKPKDTLMISRTPEVTCVVVDVSHEDPEVKFNWYVDGVEVHNAKTKPREEQYNSTYRVVSVLTVLHQDWLNGKEYKCKVSNKALPAPIEKTISKAKGQPREPQVCTLPPSRDELTKNQVSLSCAVKGFYPSDIAVEWESNGQPENNYKTTPPVLDSDGSFFLVSKLTVDKSRWQQGNVFSCSVMHEALHNHYTQKSLSLSPGK
light 2: DVVLTQSPLSLPVTLGQPASISCKSSQSLLHSSGKTYLNWLLQRPGQSPRRLIYLVSKLDSGVPDRFSGSGSGTDFTLKISRVEAEDVGVYYCAQGTHFPRTFGGGTKVEIKRTVAAPSVFIFPPSDEQLKSGTASVVCLLNNFYPREAKVQWKVDNALQSGNSQESVTEQDSKDSTYSLSSTLTLSKADYEKHKVYACEVTHQGLSSPVTKSFNRGEC
In the case of B2, the “EC50 ratio (relative to JNJ-64407564), cytotoxic activity against NCI-H929” value was found to be 0.09 ratio.
